Here are results for one molecule from US11666658B2, “Rifamycin analogs and antibody-drug conjugates thereof” (Regeneron Pharmaceuticals, Inc., priority 2018, dated 2023).

Assay [1] has as its target T1, MSR1 on differentiated THP-1 cells (Homo sapiens, UniProt P21757).
T1 construct: endogenously expressed human MSR1; endogenous in cells; host or cells: THP-1 cells treated with 200 nM PMA
T1 sequence (P21757 1-451): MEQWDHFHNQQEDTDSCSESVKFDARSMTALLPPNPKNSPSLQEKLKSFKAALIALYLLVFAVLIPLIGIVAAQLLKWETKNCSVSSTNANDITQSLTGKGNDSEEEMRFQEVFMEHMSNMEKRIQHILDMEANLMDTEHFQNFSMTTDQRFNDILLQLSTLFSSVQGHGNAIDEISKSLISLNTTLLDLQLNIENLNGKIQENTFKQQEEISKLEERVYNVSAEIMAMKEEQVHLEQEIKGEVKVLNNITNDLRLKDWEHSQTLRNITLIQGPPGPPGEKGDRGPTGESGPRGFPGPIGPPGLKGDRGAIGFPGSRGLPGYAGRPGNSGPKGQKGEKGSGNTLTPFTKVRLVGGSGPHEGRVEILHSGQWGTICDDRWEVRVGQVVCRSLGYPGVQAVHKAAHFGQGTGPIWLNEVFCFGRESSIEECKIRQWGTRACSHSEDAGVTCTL
Kind of assay: Binding and internalization of cell-surface expressed MSR1 (confocal imaging). The format is cell-based. The settings on record: 10 μg/mL antibody. The method, then:
The THP-1 cells were allowed to differentiate for 4 days at 37° C. in 5% CO2. […] The remaining two plates were incubated at 37° C. for 1 hour followed by fixation and staining for 20 minutes using a solution of 4% PFA+5 μM DRAQ5 diluted in PBS (internalization plates). After fixation, all plates were washed once with PBS. […] The remaining plates were incubated with PBS only. Confocal images were acquired on the Opera Phenix (Perkin Elmer) at 40× magnification. […] The total binding at 4° C. (RFU values of 4° C. unquenched wells), total binding at 37° C.
For all calculations, background fluorescence from unstained wells was subtracted from every well. Total internalized RFU was calculated as follows: Total RFU of 37° C. unquenched samples—Surface RFU at 37° C. Surface RFU is defined as unquenched RFU at 37° C.-quenched RFU at 37° C.)/QE. QE (quenching efficiency) is defined as: 1-(Total RFU of 4° C. quenched sample/Total RFU of 4° C. unquenched sample). The % Internalization was determined from the following formula: (Total internalized RFU at 37° C./Total RFU at 37° C.)*100.

Assay [2] addresses T2, human MSR1 extracellular domain (His9-hMSR1) (Homo sapiens, UniProt P21757).
T2 construct: human MSR1 extracellular domain expressed with a N-terminal nonahistidine tag; purchased R&D Systems 2708-MS
T2 sequence (P21757 77-451 limits assumed): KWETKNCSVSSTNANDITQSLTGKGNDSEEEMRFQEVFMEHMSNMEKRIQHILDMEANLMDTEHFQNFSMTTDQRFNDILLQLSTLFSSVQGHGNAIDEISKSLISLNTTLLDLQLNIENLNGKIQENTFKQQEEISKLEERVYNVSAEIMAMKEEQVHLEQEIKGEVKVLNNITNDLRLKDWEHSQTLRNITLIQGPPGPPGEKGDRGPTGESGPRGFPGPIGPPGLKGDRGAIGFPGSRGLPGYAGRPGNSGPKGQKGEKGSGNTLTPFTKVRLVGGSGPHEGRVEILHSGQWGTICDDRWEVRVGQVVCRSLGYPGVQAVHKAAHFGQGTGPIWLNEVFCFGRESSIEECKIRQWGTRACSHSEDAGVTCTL
Kind of assay: Surface plasmon resonance (Biacore 4000) binding kinetics, antibody-capture format, 25° C. and 37° C. The following applies: analyte His9-hMSR1. The procedure:
(§1) Binding affinities and kinetic constants of human anti-MSR1 antibodies for different MSR1 reagents were determined by real-time surface plasmon resonance (Biacore 4000). All binding studies were performed in 10 mM HEPES, 150 mM NaCl, 3 mM EDTA, and 0.05% v/v Surfactant Tween-20, pH 7.4 (HBS-ET) running buffer at 25° C. and 37° C.
(§2) The association rate (ka) and dissociation rate (kd) were determined by fitting the real-time binding sensorgrams to a 1:1 binding model with mass transport limitation using Scrubber 2.0 c curve-fitting software. Binding dissociation equilibrium constant (KD) and dissociative half-life (t½) were calculated from the kinetic rates as: […]
On the technique in general: In SPR one partner is held on a chip, and binding of the other changes the refractive index at the surface.

The test system of assay [3] is monkey MSR1 extracellular domain (HMM-mfMSR1). The description is as above. The following applies: analyte HMM-mfMSR1. The procedure: as §1, §2
Setting [4] is: 37° C., antibody-capture format.
Where [5] appears, read: 37° C., antibody-capture format, * = no dissociation observed, kd manually fixed at 1.00E−05.
Setting [6] is: Biacore, 25° C., * no dissociation observed, kd fixed at 1.00E−05.

monkey MSR1 extracellular domain (HMM-mfMSR1), sequence (as listed by the source): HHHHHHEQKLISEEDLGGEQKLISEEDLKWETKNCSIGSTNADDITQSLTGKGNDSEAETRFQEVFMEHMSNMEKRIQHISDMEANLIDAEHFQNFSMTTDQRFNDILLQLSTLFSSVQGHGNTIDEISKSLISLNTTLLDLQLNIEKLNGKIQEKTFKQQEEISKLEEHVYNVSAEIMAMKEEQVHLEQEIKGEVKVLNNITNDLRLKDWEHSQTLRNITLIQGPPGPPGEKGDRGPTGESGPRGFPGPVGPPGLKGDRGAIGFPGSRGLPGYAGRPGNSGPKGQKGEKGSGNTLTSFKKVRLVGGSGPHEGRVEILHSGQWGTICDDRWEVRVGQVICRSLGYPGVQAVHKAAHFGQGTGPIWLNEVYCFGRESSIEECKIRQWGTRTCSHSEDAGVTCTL

B1: H1H21234N-N297Q: "An anti-MSR1 antibody H1H21234N containing a N297Q mutation, which eliminates N-linked glycosylation of the Fc at this site" (antibody, V domains shown)
VH: QVQLQESGPGLVKPSETLSLTCTVTGGSISRNYWSWIRQPPGKGLEWIGYIYYSGSIDYNPSLKSRVTISVDTSKNQFSLKLSSMTAADTAVYYCARDRWNWKYGMDVWGQGTTVIVSS
VL: EIVLTQSPGTLSLSPGERATLSCRASQTVRNNYLAWYHQKPGQAPRLLIYGASSRATGIPDRFSGSGSGTDFTLTISRLEPEDFTVYYCHQYGNSPWTFGQGTKMEIKR
On to B1, for which, in assay [1] (4° C.), the “Total Binding at 4° C.” value came to 1953248. For the same molecule, the “% Internalization” value in assay [1] (37° C.) was 13.3%. Moreover, the “Total Binding at 37° C.” value in assay [1] (37° C.) is on record as 5451125. Moreover, the “Total Internalized RFU” value in assay [1] (37° C.) is 722651 RFU. Moreover, the ka in assay [2] (setting [4]) amounted to 787000 M⁻¹ s⁻¹; in assay [2] (Biacore, 25° C.) it was 497000 M⁻¹ s⁻¹; in assay [3] (setting [4]) it was 750000 M⁻¹ s⁻¹; in assay [3] (Biacore, 25° C.), 408000 M⁻¹ s⁻¹. Besides, the kd is 1.00E−05* s^−1 in assay [2] (setting [5]), 1.00E−05* s^−1 in assay [2] (setting [6]), 1.00E−05* s^−1 in assay [3] (setting [5]) and 1.95e-05 s⁻¹ in assay [3] (setting [6]).
